According to patent US20110311550A1 (Scripps Research, published 2011):

Legend:
Test in all cases: ELISA, lectin-captured E1E2 lysate, Ab 1 ug/ml;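 further: E1E2 captured on Galanthus nivalis lectin-coated plates, bound test antibody read out by an HRP-linked secondary antibody and TMB colour development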
[1] = biological target: E1E2 complex (H77) with E1 mutation N305A/N234A (HCV genotype 1a, isolate H77, UniProt P27958 192-383; P27958 384-746)
[2] = biological target: E1E2 complex (H77) with E1 mutation N196A (HCV genotype 1a, isolate H77, UniProt P27958 192-383; P27958 384-746)
[3] = biological target: E1E2 complex (H77) with E1 mutation N205A (HCV genotype 1a, isolate H77, UniProt P27958 192-383; P27958 384-746)
[4] = biological target: E1E2 complex (H77) with E1 mutation N209A (HCV genotype 1a, isolate H77, UniProt P27958 192-383; P27958 384-746)
[5] = biological target: E1E2 complex (H77) with E1 mutation S211A (HCV genotype 1a, isolate H77, UniProt P27958 192-383; P27958 384-746)
[6] = biological target: E1E2 complex (H77) with E1 mutation L221A (HCV genotype 1a, isolate H77, UniProt P27958 192-383; P27958 384-746)
[7] = biological target: E1E2 complex (H77) with E1 mutation H222A (HCV genotype 1a, isolate H77, UniProt P27958 192-383; P27958 384-746)
[8] = biological target: E1E2 complex (H77) with E1 mutation N234A (HCV genotype 1a, isolate H77, UniProt P27958 192-383; P27958 384-746)
[9] = biological target: E1E2 complex (H77) with E1 mutation P244A (HCV genotype 1a, isolate H77, UniProt P27958 192-383; P27958 384-746)
[10] = biological target: E1E2 complex (H77) with E1 mutation A269G (HCV genotype 1a, isolate H77, UniProt P27958 192-383; P27958 384-746)
[11] = biological target: E1E2 complex (H77) with E1 mutation A274G (HCV genotype 1a, isolate H77, UniProt P27958 192-383; P27958 384-746)
[12] = biological target: E1E2 complex (H77) with E1 mutation G278A (HCV genotype 1a, isolate H77, UniProt P27958 192-383; P27958 384-746)
[13] = biological target: E1E2 complex (H77) with E1 mutation D279A (HCV genotype 1a, isolate H77, UniProt P27958 192-383; P27958 384-746)
[14] = biological target: E1E2 complex (H77) with E1 mutation Y309A (HCV genotype 1a, isolate H77, UniProt P27958 192-383; P27958 384-746)
[15] = biological target: E1E2 complex (H77) with E1 mutation H316A (HCV genotype 1a, isolate H77, UniProt P27958 192-383; P27958 384-746)
[16] = biological target: E1E2 complex (H77) with E1 mutation A319G (HCV genotype 1a, isolate H77, UniProt P27958 192-383; P27958 384-746)
[17] = biological target: E1E2 complex (H77) with E1 mutation D321A (HCV genotype 1a, isolate H77, UniProt P27958 192-383; P27958 384-746)
[18] = biological target: E1E2 complex (H77) with E1 mutation N325A (HCV genotype 1a, isolate H77, UniProt P27958 192-383; P27958 384-746)
[19] = biological target: E1E2 complex (H77) with E1 mutation W326A (HCV genotype 1a, isolate H77, UniProt P27958 192-383; P27958 384-746)
[20] = biological target: E1E2 complex (H77) with E1 mutation R339A (HCV genotype 1a, isolate H77, UniProt P27958 192-383; P27958 384-746)
[21] = biological target: E1E2 complex (H77) with E1 mutation G354A (HCV genotype 1a, isolate H77, UniProt P27958 192-383; P27958 384-746)
[22] = biological target: E1E2 complex (H77) with E1 mutation N305A/N209A (HCV genotype 1a, isolate H77, UniProt P27958 192-383; P27958 384-746)

B1: N4 IgG (antibody, V domains shown)
VH: VQLLEQSGPEVKKPGDSLRISCKMSGDSLVTTWIGWVRQKPGQGLEWMGIINPGDSSTNIYPGDSATRYGPSFQGQVTISIDKSTSTAYLQWNNVKASDTGIYYCARHVPVPISGTFLWREREMHDFGYFDDWGQGTLVIVSS
VL: ELTLTQSPGTLSLSPGERATLSCRASQSVSNNYLAWYQQKPGQAPRLLIYGASSRATGIPDRFSGSGSGTGFTLIISRLEPEDFAVYYCQQYGSSSITFGQGTRLEIKR
notes: also called IgG N4
Binding relative to wt (%) [1]: 30%
Binding relative to wt (%) [2]: 52%
Binding relative to wt (%) [3]: 3%
Binding relative to wt (%) [4]: 117%
Binding relative to wt (%) [5]: 93%
Binding relative to wt (%) [6]: 100%
Binding relative to wt (%) [7]: 44%
Binding relative to wt (%) [8]: 114%
Binding relative to wt (%) [9]: 95%
Binding relative to wt (%) [10]: 55%
Binding relative to wt (%) [11]: 71%
Binding relative to wt (%) [12]: 68%
Binding relative to wt (%) [13]: 31%
Binding relative to wt (%) [14]: 32%
Binding relative to wt (%) [15]: 70%
Binding relative to wt (%) [16]: 113%
Binding relative to wt (%) [17]: 92%
Binding relative to wt (%) [18]: 150%
Binding relative to wt (%) [19]: 125%
Binding relative to wt (%) [20]: 119%
Binding relative to wt (%) [21]: 90%
Binding relative to wt (%) [22]: 17%
